Biological target: the molecule itself
Assay: cryo-EM structure

B1: mouse TRPC5 construct lacking the C-terminal 210 residues (a.a. 1-765) (domain or fragment, UniProt Q9QX29 1-765, looked up)
chain: MAQLYYKKVNYSPYRDRIPLQIVRAETELSAEEKAFLSAVEKGDYATVKQALQEAEIYYNVNINCMDPLGRSALLIAIENENLEIMELLLNHSVYVGDALLYAIRKEVVGAVELLLSYRKPSGEKQVPTLMMDTQFSEFTPDITPIMLAAHTNNYEIIKLLVQKRVTIPRPHQIRCNCVECVSSSEVDSLRHSRSRLNIYKALASPSLIALSSEDPILTAFRLGWELKELSKVENEFKAEYEELSQQCKLFAKDLLDQARSSRELEIILNHRDDHSEELDPQKYHDLAKLKVAIKYHQKEFVAQPNCQQLLATLWYDGFPGWRRKHWVVKLLTCMTIGFLFPMLSIAYLISPRSNLGLFIKKPFIKFICHTASYLTFLFMLLLASQHIVRTDLHVQGPPPTVVEWMILPWVLGFIWGEIKEMWDGGFTEYIHDWWNLMDFAMNSLYLATISLKIVAYVKYNGSRPREEWEMWHPTLIAEALFAISNILSSLRLISLFTANSHLGPLQISLGRMLLDILKFLFIYCLVLLAFANGLNQLYFYYETRAIDEPNNCKGIRCEKQNNAFSTLFETLQSLFWSVFGLLNLYVTNVKARHEFTEFVGATMFGTYNVISLVVLLNMLIAMMNNSYQLIADHADIEWKFARTKLWMSYFDEGGTLPPPFNIIPSPKSFLYLGNWFNNTFCPKRDPDGRRRRHNLRSFTERHADSLIQNQHYQEVIRNLVKRYVAAMIRNSKTNEGLTEENFKELKQDISSFRYEVLDLLGNRK
B1 was tested, and the “stoichiometry N” value was 4.

Reference: paper doi:10.1101/467969 (bioRxiv, 2018)
